The record followed here is paper PMC314469, “Protein Interaction Networks by Proteome Peptide Scanning” (PLoS Biology, 2004).

For this experiment, the target named is T1, Abp1 SH3 (ABP1_YEAST), P15891.
T1 chain: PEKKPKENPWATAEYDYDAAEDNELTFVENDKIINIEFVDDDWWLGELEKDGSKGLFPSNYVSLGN
Nature of the experiment: SPOT array.
FEMVTEVPIPRRP [YGR156W 132-144] displayed a normalised SPOT signal, Boehringer light units (BLU); mean over the file's lines of this peptide of 526.

On to EVRKVYIPKVVKP [YJR143C 526-538], for which the normalised SPOT signal, Boehringer light units (BLU); mean over the file's lines of this peptide was 250.

Consider FSYPISSPINFKP [YPR164W 96-108], for which the normalised SPOT signal, Boehringer light units (BLU); mean over the file's lines of this peptide came to 115.

Turning to FSAAEIWPTKGKP [YMR228W 229-241], the normalised SPOT signal, Boehringer light units (BLU); mean over the file's lines of this peptide stood at 158.

As to ESLKLYYRHRPQKP [YOL164W 141-154], the normalised SPOT signal, Boehringer light units (BLU); mean over the file's lines of this peptide was 146.

In the case of FLDVLKIKPLPYKP [YER093C 581-594], the normalised SPOT signal, Boehringer light units (BLU); mean over the file's lines of this peptide came out at 316.

Turning to EYGHHARPDSKRP [YMR268C 2-14], the normalised SPOT signal, Boehringer light units (BLU); mean over the file's lines of this peptide was 61.2.

On to ESLNLQFQAHPPKP [YKR050W 395-408], for which the normalised SPOT signal, Boehringer light units (BLU); mean over the file's lines of this peptide turned out to be 27.2.

Turning to FNTPVDSPSVSRP [YER040W 639-651], the normalised SPOT signal, Boehringer light units (BLU); mean over the file's lines of this peptide is 94.4.

FNVPSQKPLNSKP [YHR103W 279-291] came in with a normalised SPOT signal, Boehringer light units (BLU); mean over the file's lines of this peptide of 955.

For the molecule EVVKILRESNPPRP [YJR010W 379-392], the normalised SPOT signal, Boehringer light units (BLU); mean over the file's lines of this peptide was found to be 39.2.

For FASDSLLDLSPIKP [YCL018W 111-124], the normalised SPOT signal, Boehringer light units (BLU); mean over the file's lines of this peptide is 73.8.

Molecule FPPNEAPMLSPQRP [YLR006C 159-172] yielded a normalised SPOT signal, Boehringer light units (BLU); mean over the file's lines of this peptide of 35.

FIDDLKQPKYVRP [YPL070W 96-108] returned a normalised SPOT signal, Boehringer light units (BLU); mean over the file's lines of this peptide of 48.4.

Consider FIDPSLRPIIVKP [YPR056W 253-265], for which the normalised SPOT signal, Boehringer light units (BLU); mean over the file's lines of this peptide was determined as 10.5.

FDIVFPAPKGKRP [YBR034C 258-270] returned a normalised SPOT signal, Boehringer light units (BLU); mean over the file's lines of this peptide of 284.

Molecule FDSQFSAPFNGRP [YBL014C 791-803] came in with a normalised SPOT signal, Boehringer light units (BLU); mean over the file's lines of this peptide of 168.

As to FLNDVEEEESPVKP [YLL021W 576-589], the normalised SPOT signal, Boehringer light units (BLU); mean over the file's lines of this peptide was found to be 123.

The molecule FQLPTRLPAFERP [YDL150W 307-319] gave a normalised SPOT signal, Boehringer light units (BLU); mean over the file's lines of this peptide of 353.

The molecule FEEPEDFLPPPPKP [YLR285W 14-27] had a normalised SPOT signal, Boehringer light units (BLU); mean over the file's lines of this peptide of 55.3.

In turn, ETGVSIKNPRPSRP [YPR096C 4-17] had a normalised SPOT signal, Boehringer light units (BLU); mean over the file's lines of this peptide of 615.

Molecule FRGDYGNNISPERP [YAL017W 277-290] displayed a normalised SPOT signal, Boehringer light units (BLU); mean over the file's lines of this peptide of 106.

In turn, EYLDQKNPQKEKP [YDR293C 662-674] came in with a normalised SPOT signal, Boehringer light units (BLU); mean over the file's lines of this peptide of 52.7.

On to FDYIVTREFRPTKP [YOR131C 125-138], for which the normalised SPOT signal, Boehringer light units (BLU); mean over the file's lines of this peptide is 83.2.

With ETELGHVPLVERP [YDL079C 472-484], the normalised SPOT signal, Boehringer light units (BLU); mean over the file's lines of this peptide was determined as 136.

As to FREPERKTSVPVRP [YIL156W 221-234], the normalised SPOT signal, Boehringer light units (BLU); mean over the file's lines of this peptide is 773.

Molecule FINVSHSPLVPKP [YHR034C 60-72] yielded a normalised SPOT signal, Boehringer light units (BLU); mean over the file's lines of this peptide of 76.6.

In turn, FNVQDVRPDLFRP [YDR080W 297-309] registered a normalised SPOT signal, Boehringer light units (BLU); mean over the file's lines of this peptide of 100.

In the case of EYKYSRPPYNFKP [YBR043C 498-510], the normalised SPOT signal, Boehringer light units (BLU); mean over the file's lines of this peptide turned out to be 155.

Take FNGNSRLMMIPKKP [YDL073W 594-607]: the normalised SPOT signal, Boehringer light units (BLU); mean over the file's lines of this peptide is 4150.

In turn, FQFLNNTPKMLKP [YLR190W 87-99] showed a normalised SPOT signal, Boehringer light units (BLU); mean over the file's lines of this peptide of 246.

FIQQMMDPSKAKP [YPL082C 1249-1261] displayed a normalised SPOT signal, Boehringer light units (BLU); mean over the file's lines of this peptide of 230.

FLSIHFPTDYPFKP [YBR082C 52-65] registered a normalised SPOT signal, Boehringer light units (BLU); mean over the file's lines of this peptide of 95.8.

ETQPIQNFQPPPKP [YBR108W 650-663] displayed a normalised SPOT signal, Boehringer light units (BLU); mean over the file's lines of this peptide of 82.5.

Consider FKVMVANPRKSKP [YKL189W 299-311], for which the normalised SPOT signal, Boehringer light units (BLU); mean over the file's lines of this peptide amounted to 2270.

Regarding EVRDLWLSILPTKP [YBR115C 851-864], the normalised SPOT signal, Boehringer light units (BLU); mean over the file's lines of this peptide was 86.6.

On to FASKVNYPVLIRP [YJR109C 723-735], for which the normalised SPOT signal, Boehringer light units (BLU); mean over the file's lines of this peptide amounted to 156.

ETLWDLPPKFPEKP [YDR444W 182-195] yielded a normalised SPOT signal, Boehringer light units (BLU); mean over the file's lines of this peptide of 55.6.

Take FEKGPRMPSRGRP [YPR171W 143-155]: the normalised SPOT signal, Boehringer light units (BLU); mean over the file's lines of this peptide stood at 2280.

The molecule FKRAGLIPIRLRP [YDR072C 45-57] returned a normalised SPOT signal, Boehringer light units (BLU); mean over the file's lines of this peptide of 411.

Take FNKTRFVPGSNKP [YPL272C 132-144]: the normalised SPOT signal, Boehringer light units (BLU); mean over the file's lines of this peptide was 831.

EVPMFVNPANAKP [YHL038C 181-193] yielded a normalised SPOT signal, Boehringer light units (BLU); mean over the file's lines of this peptide of 70.8.

The molecule FQLIYFFPDLIKP [YOL107W 265-277] displayed a normalised SPOT signal, Boehringer light units (BLU); mean over the file's lines of this peptide of 28.8.

Turning to FDGKPTATPSPFRP [YMR153W 197-210], the normalised SPOT signal, Boehringer light units (BLU); mean over the file's lines of this peptide was determined as 101.

FKRSIGASHAPLKP [YER161C 100-113] came in with a normalised SPOT signal, Boehringer light units (BLU); mean over the file's lines of this peptide of 145.

In turn, FLHGNTNAPTPLRP [YPR099C 84-97] gave a normalised SPOT signal, Boehringer light units (BLU); mean over the file's lines of this peptide of 63.

As to FGLEQISPAQKKP [YDL217C 6-18], the normalised SPOT signal, Boehringer light units (BLU); mean over the file's lines of this peptide was determined as 63.

The molecule FFPNVNSPSVNKP [YNR045W 370-382] came in with a normalised SPOT signal, Boehringer light units (BLU); mean over the file's lines of this peptide of 101.

FQVVLDTPQGLKP [YFR037C 187-199] came in with a normalised SPOT signal, Boehringer light units (BLU); mean over the file's lines of this peptide of 103.

FDKKNETPRKRKP [YBL046W 314-326] displayed a normalised SPOT signal, Boehringer light units (BLU); mean over the file's lines of this peptide of 173.

In turn, ETVTNSGGLQPLKP [YOR329C 474-487] gave a normalised SPOT signal, Boehringer light units (BLU); mean over the file's lines of this peptide of 54.3.

Consider FPDWSMGPNSAKP [YPL089C 527-539], for which the normalised SPOT signal, Boehringer light units (BLU); mean over the file's lines of this peptide amounted to 238.

Consider FAEKVGYPVLVRP [YJL130C 1124-1136], for which the normalised SPOT signal, Boehringer light units (BLU); mean over the file's lines of this peptide came out at 85.3.

FFQLPPVSKDPNRP [YML061C 379-392] returned a normalised SPOT signal, Boehringer light units (BLU); mean over the file's lines of this peptide of 186.
